This note sets out measurements from patent US20120114682A1 (GEORGIA TECH RESEARCH, published 2012).

In test [1] the target is Fibrin matrix (clot) (human) (UniProt P02671). Put plainly: confocal colocalisation, perfused fibrin clot, 10 min.
For test [2] the target is unchanged. As to the kind of experiment: confocal colocalisation, perfused fibrin clot, 0 min.
Test [3] has the same target. As to the kind of experiment: confocal colocalisation, perfused fibrin clot, 30 min.
The target is the same in test [4]. As to the kind of experiment: confocal colocalisation, perfused fibrin clot, 20 min.
Test [5] addresses T1, Fibrinogen fragment D (human, UniProt P02671 130-216; P02675 164-491; P02679 114-432, limits assumed).
T1 construct: domain: Fragment D (or D-domain); Made by plasmin digestion of human fibrinogen and purified on GPRPAA beads; holds the C-terminal polymerization pockets without the N-terminal knobs; immobilised by amine coupling on the SPR chip; also called D-domain
T1 sequence (looked up) 1: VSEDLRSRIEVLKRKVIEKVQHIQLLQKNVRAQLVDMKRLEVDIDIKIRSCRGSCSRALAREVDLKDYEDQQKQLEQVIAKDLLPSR
T1 sequence (looked up) 2: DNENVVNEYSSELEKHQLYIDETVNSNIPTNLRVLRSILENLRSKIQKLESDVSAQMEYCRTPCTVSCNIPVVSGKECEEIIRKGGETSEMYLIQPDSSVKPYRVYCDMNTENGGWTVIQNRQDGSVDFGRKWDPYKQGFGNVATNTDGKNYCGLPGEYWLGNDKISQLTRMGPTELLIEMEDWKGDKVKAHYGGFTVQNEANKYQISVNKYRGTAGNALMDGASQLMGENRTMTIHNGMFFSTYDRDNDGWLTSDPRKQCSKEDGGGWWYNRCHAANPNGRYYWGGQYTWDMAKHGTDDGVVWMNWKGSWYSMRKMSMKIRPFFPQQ
T1 sequence (looked up) 3: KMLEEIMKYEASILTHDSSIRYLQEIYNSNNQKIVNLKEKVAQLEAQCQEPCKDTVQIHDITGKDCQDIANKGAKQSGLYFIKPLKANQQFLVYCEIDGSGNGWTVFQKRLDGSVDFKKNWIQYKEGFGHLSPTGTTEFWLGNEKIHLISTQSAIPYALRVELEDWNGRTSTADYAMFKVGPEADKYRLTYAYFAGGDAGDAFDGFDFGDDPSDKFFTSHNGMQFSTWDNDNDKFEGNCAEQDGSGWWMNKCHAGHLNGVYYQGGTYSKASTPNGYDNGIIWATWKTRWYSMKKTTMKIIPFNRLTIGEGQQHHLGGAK
Put plainly: SPR (Biacore 2000), fragment D immobilised, equilibrium response fit to a single-site model.

Test [6] deals with T1, Fibrinogen fragment D. As to the kind of experiment: SPR, fragment D immobilised, competitor soluble GPRP peptide in the analyte solution.
Test [7] addresses T1, Fibrinogen fragment D. As to the kind of experiment: SPR, fragment D immobilised, heterogeneous ligand model, site 1 (ka1). How it is done:
(§1) Upon stabilization of the baseline signal, kinetic binding experiments were run in duplicate with the peptide variants as the flow analytes. Five varying concentrations for each peptide (0.94 μM to 150 μM) were flowed at 25 μL/min for 4 min immediately followed by a 10 min dissociation phase. Between each run, the surface was regenerated with 1M sodium bromide and 50 mM sodium acetate (pH 6.0). SPR experiments were performed three times with varying peptide injection order to rule out binding trends associated with injection sequence. Peptide solutions were incubated with tris(2-carboxyethyl)phosphine (TCEP) immobilized on agarose beads (Thermo Fisher Scientific, Inc; Rockland, Ill.) to ensure reduction of any disulfide bonds between C-terminal cysteines.
(§2) To investigate the dynamic binding profile between the fibrinogen/fibrin holes and knob peptide variants, SPR was employed. Binding interactions were evaluated by flowing the knob peptides over an immobilized surface of fragment D (FIG. 8). By immobilizing fragment D as opposed to full-length fibrinogen, the kinetic binding model was simplified to a heterogeneous 2-site ligand model (i.e. one hole ‘a’ and hole ‘b’ per ligand) as opposed to a 4-site model (i.e. two of each hole ‘a’ and hole ‘b’ per ligand). The data was modeled using both a Langmuir 1:1 model and a heterogeneous ligand model to compare previously established binding affinities to a more dynamic two-site model. However, the complexity of the heterogeneous model fitted parameters for sites 1 and 2 (i.e. maximal binding response, kₐ, and kd) limits direct designation or assignment of holes ‘a’ or ‘b’ to site 1 or 2. […] All peptide SPR data was fit except for the negative control peptide, GPSPAAC (SEQ ID NO:9), where minimal binding response was observed.

Test [8] addresses T1, Fibrinogen fragment D. As to the kind of experiment: SPR, fragment D immobilised, heterogeneous ligand model, site 1. How it is done: as §1, §2
Test [9] has as its target T1, Fibrinogen fragment D. As to the kind of experiment: SPR, fragment D immobilised, heterogeneous ligand model, site 2 (kd2). How it is done:
as §1, §2

The target in test [10] is T1, Fibrinogen fragment D. Put plainly: SPR, fragment D immobilised, heterogeneous ligand model, site 1 (kd1). How it is done:
as §1, §2

The target of test [11] is T1, Fibrinogen fragment D. As to the kind of experiment: SPR, fragment D immobilised, Langmuir 1:1 model. How it is done:
as §1, §2

The target of test [12] is T1, Fibrinogen fragment D. Put plainly: SPR, fragment D immobilised, heterogeneous ligand model, site 2. How it is done:
as §1, §2

For test [13], the target named is T1, Fibrinogen fragment D. Put plainly: SPR, heterogeneous ligand model, site 1 (KD1 = kd/ka). How it is done: as §1, §2
Test [14] deals with T1, Fibrinogen fragment D. Put plainly: SPR, heterogeneous ligand model, site 2 (KD2 = kd/ka). How it is done:
as §1, §2

Test [15] deals with T1, Fibrinogen fragment D. Put plainly: SPR (Biacore 2000), fragment D immobilised, Langmuir 1:1 model. How it is done: as §1, §2
Test [16] addresses T1, Fibrinogen fragment D. Put plainly: SPR, fragment D immobilised, heterogeneous ligand model, site 2 (ka2). How it is done:
as §1
To investigate the dynamic binding profile between the fibrinogen/fibrin holes and knob peptide variants, SPR was employed. Binding interactions were evaluated by flowing the knob peptides over an immobilized surface of fragment D (FIG. 8). By immobilizing fragment D as opposed to full-length fibrinogen, the kinetic binding model was simplified to a heterogeneous 2-site ligand model (i.e. one hole ‘a’ and hole ‘b’ per ligand) as opposed to a 4-site model (i.e. two of each hole ‘a’ and hole ‘b’ per ligand). […]

Test [17] has as its target Human fibrinogen (human) (UniProt P02671). As to the kind of experiment: competition ELISA: soluble peptide added to fibrinogen, binding of fibrinogen to immobilised GPRP-FnIII9-10-C is measured; signal normalised to the GSPE peptide.

Sequence of Fibrin matrix (clot) (human) (P02671 36-629 limits assumed, chain 1 of 2): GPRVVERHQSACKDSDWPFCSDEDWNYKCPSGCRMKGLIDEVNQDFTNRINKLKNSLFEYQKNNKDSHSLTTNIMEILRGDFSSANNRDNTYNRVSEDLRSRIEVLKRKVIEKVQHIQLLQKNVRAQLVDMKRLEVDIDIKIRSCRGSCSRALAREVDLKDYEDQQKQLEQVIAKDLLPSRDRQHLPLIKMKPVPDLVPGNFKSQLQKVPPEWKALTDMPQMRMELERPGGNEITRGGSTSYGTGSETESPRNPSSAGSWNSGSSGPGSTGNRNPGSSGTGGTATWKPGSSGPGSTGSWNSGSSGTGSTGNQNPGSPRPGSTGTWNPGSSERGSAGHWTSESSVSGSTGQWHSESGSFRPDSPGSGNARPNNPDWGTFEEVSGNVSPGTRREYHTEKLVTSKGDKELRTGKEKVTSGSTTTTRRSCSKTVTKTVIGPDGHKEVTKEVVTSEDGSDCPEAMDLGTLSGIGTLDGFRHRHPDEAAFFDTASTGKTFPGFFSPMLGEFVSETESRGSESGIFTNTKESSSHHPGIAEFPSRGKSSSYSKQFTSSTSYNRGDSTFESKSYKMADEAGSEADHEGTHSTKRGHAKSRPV
Sequence of Fibrin matrix (clot) (human) (P02679 other isoform, or with tags, fused parts or gaps limits assumed, chain 3 of 2, further chain): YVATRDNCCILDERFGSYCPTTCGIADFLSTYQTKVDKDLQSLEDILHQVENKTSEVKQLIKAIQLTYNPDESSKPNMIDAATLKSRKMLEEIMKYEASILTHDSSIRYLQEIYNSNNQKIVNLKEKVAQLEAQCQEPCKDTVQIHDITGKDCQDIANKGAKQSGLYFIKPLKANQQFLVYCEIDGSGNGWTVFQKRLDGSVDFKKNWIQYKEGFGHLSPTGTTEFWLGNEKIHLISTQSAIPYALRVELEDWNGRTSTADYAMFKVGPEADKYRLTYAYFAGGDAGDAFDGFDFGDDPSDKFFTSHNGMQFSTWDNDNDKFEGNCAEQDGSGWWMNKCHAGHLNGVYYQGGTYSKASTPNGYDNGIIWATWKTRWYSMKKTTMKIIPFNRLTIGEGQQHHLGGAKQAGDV

On to “GSPE-FnIII9-10-AF633 (from UniProt P02751 1448-1631)”, for which, in [1], the Colocalization Coefficient (Fibrin) came out at 0.001, the Colocalization Coefficient (GSPE-Fn) was 0.521, the Correlation Coefficient (R) is -0.06 and the Mean Intensity (GSPE-Fn) was 45. The molecule further had a Relative Area of Colocalization in test [1] of 0%. Further, in test [2], the Colocalization Coefficient (Fibrin) amounted to 0.01, the Colocalization Coefficient (GSPE-Fn) came to 0.739, the Correlation Coefficient (R) is 0.04 and the Mean Intensity (GSPE-Fn) came to 46. The same molecule displayed a Relative Area of Colocalization in test [2] of 0.6%. In addition, in test [3], the Colocalization Coefficient (Fibrin) amounted to 0.003, the Colocalization Coefficient (GSPE-Fn) stood at 0.377, the Correlation Coefficient (R) was -0.02 and the Mean Intensity (GSPE-Fn) was found to be 38. In addition, in test [3], the Relative Area of Colocalization worked out at 0.1%. In [4], this molecule registered a Colocalization Coefficient (Fibrin) of 0.003, a Colocalization Coefficient (GSPE-Fn) of 0.0413, a Correlation Coefficient (R) of 0.02 and a Mean Intensity (GSPE-Fn) of 44. The Relative Area of Colocalization in [4] was 0.1%.

Turning to “GPRP-FnIII9-10-AF633 (from UniProt P02751 1448-1631)”, in test [1], the Colocalization Coefficient (Fibrin) amounted to 0.325, the Colocalization Coefficient (GPRP-Fn) was 0.956, the Correlation Coefficient (R) stood at 0.19 and the Mean Intensity (GPRP-Fn) was 55. Besides, in test [1], the Relative Area of Colocalization was determined as 28.5%. In [2], this molecule returned a Colocalization Coefficient (Fibrin) of 0.981, a Colocalization Coefficient (GPRP-Fn) of 0.965, a Correlation Coefficient (R) of 0.47 and a Mean Intensity (GPRP-Fn) of 100. Further, the Relative Area of Colocalization in [2] was found to be 94.2%. In test [3], the Colocalization Coefficient (Fibrin) worked out at 0.159, the Colocalization Coefficient (GPRP-Fn) was found to be 0.926, the Correlation Coefficient (R) turned out to be 0.11 and the Mean Intensity (GPRP-Fn) amounted to 51. Besides, the Relative Area of Colocalization in test [3] is 12.8%. Besides, in test [4], the Colocalization Coefficient (Fibrin) amounted to 0.219, the Colocalization Coefficient (GPRP-Fn) worked out at 0.948, the Correlation Coefficient (R) came to 0.14 and the Mean Intensity (GPRP-Fn) came to 52. In [4], the Relative Area of Colocalization was 19.1%.

As for “GPRV-FnIII9-10 (from UniProt P02751 1448-1631)”, the dissociation constant Kd in test [5] amounted to 125 µM.

Regarding “GPRP-FnIII9-10 (from UniProt P02751 1448-1631)”, in test [6], the KD in the presence of a 10-molar excess of soluble GPRP peptide was determined as 43 µM. Further, the Kd in [5] was found to be 3 µM.

B1: GPRPAAC (peptide)
peptide: GPRPAAC
notes: Synthetic (GenScript); kept reduced with immobilised TCEP; also called gold standard GPRP mimic; knob 'A' peptide
Consider B1, for which the kon was 2840 M⁻¹ s⁻¹ in test [7] and 1140 M⁻¹ s⁻¹ in test [11]. Further, the “Bmax (maximal binding capacity of fragment D, site 1)” value in test [8] was found to be 19.4 RU. The off-rate constant (koff) amounted to 0.00895 s⁻¹ in test [9], 0.0128 s⁻¹ in test [10] and 0.0117 s⁻¹ in [11]. The “B*max (maximal binding capacity of fragment D, site 2)” value (“B*max” below) in [12] was 5.91 RU. In addition, the Kd in test [13] was 4.53 µM; in [14] it was 8.52 µM. Further, the “Bmax (maximal binding capacity of fragment D)” value in test [15] was determined as 21.5 RU.

B2: GPRVVERC (peptide)
peptide: GPRVVERC
notes: Synthetic (GenScript); also called knob 'A' peptide
Turning to B2, the on-rate constant (kon) is 260 M⁻¹ s⁻¹ in test [16] and 280 M⁻¹ s⁻¹ in test [11]. The “Bmax (maximal binding capacity of fragment D, site 1)” value in test [8] came to 25.6 RU. For the same molecule, the koff in test [9] came to 0.00407 s⁻¹; in test [10], 0.0577 s⁻¹; in test [11] it was 0.0234 s⁻¹. The “B*max” value in test [12] worked out at 10.3 RU. Further, the Kd in test [13] stood at 53.9 µM; in test [14], 15.7 µM. Also, the “Bmax (maximal binding capacity of fragment D)” value in test [15] was 16.3 RU.

As to GPRV [GPRV tetrapeptide], in test [17], the IC50 (read off the curve) was found to be 200 µg/mL.

B3: GPRPFPAC (peptide)
peptide: GPRPFPAC
notes: as for B2
B3: the association rate constant (kon) in [7] came to 21700 M⁻¹ s⁻¹; in test [16], 1810 M⁻¹ s⁻¹; in test [11], 12500 M⁻¹ s⁻¹. For the same molecule, in test [8], the “Bmax (maximal binding capacity of fragment D, site 1)” value was 17.6 RU. The values for the dissociation rate constant (koff) in [9], in test [10] and in test [11] were 0.00196 s⁻¹, 0.0811 s⁻¹ and 0.00727 s⁻¹, respectively. The “B*max” value in test [12] stood at 11.3 RU. Moreover, the Kd in test [13] worked out at 3.73 µM; in test [14], 1.08 µM. Besides, the “Bmax (maximal binding capacity of fragment D)” value in test [15] is 17.7 RU.

B4: GPRPPERC (peptide)
peptide: GPRPPERC
notes: as for B2
Take B4: the kon in [7] was 3220 M⁻¹ s⁻¹; in test [11], 1290 M⁻¹ s⁻¹. Also, in test [8], the “Bmax (maximal binding capacity of fragment D, site 1)” value was found to be 14.6 RU. The koff in [9] came out at 0.00296 s⁻¹; in test [10], 0.0587 s⁻¹; in [11] it was 0.00992 s⁻¹. Besides, in test [12], the “B*max” value was found to be 5.92 RU. Also, the dissociation constant (Kd) in test [13] worked out at 18.2 µM; in test [14], 2.93 µM. The “Bmax (maximal binding capacity of fragment D)” value in test [15] was determined as 19.2 RU.

B5: GPRVVAAC (peptide)
peptide: GPRVVAAC
notes: as for B2
As for B5, the on-rate (kon) in test [7] was 620 M⁻¹ s⁻¹. In addition, the “Bmax (maximal binding capacity of fragment D, site 1)” value in test [8] worked out at 8.36 RU. Further, the off-rate (koff) in test [9] turned out to be 0.001 s⁻¹; in test [10], 0.0301 s⁻¹; in test [11] it was 0.0107 s⁻¹. In addition, the “B*max” value in test [12] was 13.5 RU. The equilibrium dissociation constant (Kd) stood at 48.5 µM in test [13] and 25 µM in test [14]. Also, the “Bmax (maximal binding capacity of fragment D)” value in test [15] came out at 18.9 RU.
